Data reported in publication PMC2811759 (Biochemistry, 2010).

Target: T1, Xeroderma Pigmentosum group C (XPC) (human, UniProt Q01831 1-940)
T1 sequence (looked up): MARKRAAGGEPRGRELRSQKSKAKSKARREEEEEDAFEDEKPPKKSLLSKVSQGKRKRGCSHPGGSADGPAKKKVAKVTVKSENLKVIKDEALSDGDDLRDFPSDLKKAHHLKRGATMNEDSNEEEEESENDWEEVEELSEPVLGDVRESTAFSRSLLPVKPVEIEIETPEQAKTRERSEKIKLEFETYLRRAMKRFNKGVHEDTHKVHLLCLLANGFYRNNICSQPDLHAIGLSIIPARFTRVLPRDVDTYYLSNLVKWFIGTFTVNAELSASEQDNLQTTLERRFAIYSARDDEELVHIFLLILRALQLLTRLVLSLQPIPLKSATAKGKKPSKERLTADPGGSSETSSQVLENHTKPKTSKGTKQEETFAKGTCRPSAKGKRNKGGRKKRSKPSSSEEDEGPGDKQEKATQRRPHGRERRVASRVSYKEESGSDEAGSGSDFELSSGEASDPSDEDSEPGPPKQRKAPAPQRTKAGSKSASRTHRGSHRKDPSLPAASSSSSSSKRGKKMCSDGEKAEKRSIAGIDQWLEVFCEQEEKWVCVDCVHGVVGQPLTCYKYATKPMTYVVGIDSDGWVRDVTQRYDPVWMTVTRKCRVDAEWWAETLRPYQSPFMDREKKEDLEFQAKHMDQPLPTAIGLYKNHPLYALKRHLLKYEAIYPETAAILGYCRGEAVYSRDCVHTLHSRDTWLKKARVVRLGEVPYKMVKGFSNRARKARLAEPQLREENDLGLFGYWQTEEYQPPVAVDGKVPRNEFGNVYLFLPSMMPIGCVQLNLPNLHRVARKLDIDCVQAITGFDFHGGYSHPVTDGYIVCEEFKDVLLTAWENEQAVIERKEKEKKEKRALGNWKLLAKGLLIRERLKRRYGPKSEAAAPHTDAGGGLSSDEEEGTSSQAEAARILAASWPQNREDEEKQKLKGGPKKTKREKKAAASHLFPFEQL
Test: co-IP

B1: Rad23B (natural protein, human, UniProt P54727 1-409, looked up)
chain: MQVTLKTLQQQTFKIDIDPEETVKALKEKIESEKGKDAFPVAGQKLIYAGKILNDDTALKEYKIDEKNFVVVMVTKPKAVSTPAPATTQQSAPASTTAVTSSTTTTVAQAPTPVPALAPTSTPASITPASATASSEPAPASAAKQEKPAEKPAETPVATSPTATDSTSGDSSRSNLFEDATSALVTGQSYENMVTEIMSMGYEREQVIAALRASFNNPDRAVEYLLMGIPGDRESQAVVDPPQAASTGAPQSSAVAAAAATTTATTTTTSSGGHPLEFLRNQPQFQQMRQIIQQNPSLLPALLQQIGRENPQLLQQISQHQEHFIQMLNEPVQEAGGQGGGGGGGSGGIAEAGSGHMNYIQVTPQEKEAIERLKALGFPEGLVIQAYFACEKNENLAANFLLQQNFDED
B1: binds.
